Several values for one entry are separate records, joined by “and”; a condition that tells them apart may be missing. Equal values may be shown once.
Settings: whole UniProt chain shown
[1] = Oryza sativa subsp. japonica, pH 7, Thermal, DSC, Potassium phosphate buffer, NaCl, reversible: yes
[2] = Pectobacterium carotovorum, pH 7.4, Thermal, DSC, CGH-10, reversible: no
[3] = Ovis aries, pH 7, 25 °C, GdnHCl, CD, HEPES 20 mM, reversible: yes
[4] = Ovis aries, pH 7, 25 °C, GdnHCl, Fluorescence, HEPES 20 mM, reversible: yes
[5] = Paracoccus pantotrophus, pH 7, 25 °C, Urea, CD, Sodium phosphate 20 mM, Na2SO4 0.5 M, reversible: yes
[6] = Mus musculus, pH 7.2, 25 °C, Urea, Fluorescence, Sodium phosphate 20 mM, Sodium chloride 100 mM, reversible: Yes

B1: Protein CutA 1, chloroplastic wild type, Q109R6 (protein)
chain: MPLLPSPLGSLSAAATAAPRRAAAAAGLSPLLLRRRAPIAGALLFLSLGAFAGVRSLSSSASARMESTSTTVPSIVVYVTVPNKEAGKRLAGSIISEKLAACVNIVPGIESVYWWEGKVQTDAEELLIIKTRESLLDALTEHVKANHEYDVPEVIALPIKGGNLKYLEWLKNSTRES
- Tm [1]: 97.3 °C
- unfolding enthalpy (calorimetric) [1]: 347 kcal/mol
- unfolding free energy [1]: 0.79 kcal/mol
- denaturant midpoint (higher = more stable) (Oryza sativa subsp. japonica, pH 8, 37 °C, GdnHCl, CD, Tris-HCl buffer, NaCl, transition: 2, reversible: yes): 2.3 M

B2: Pectate lyase wild type, Q47471 (protein)
chain: MFKYLTPIFLCTAAFSFQAQADDTMLMLLKKDNATYLSWSTDAGNVVRQDVYRSTSNNQAGSEKIAELNSTDRTFTDLTANPKSDYWYWVDTVSSNNNVQKSNAAQTAPAPLRAAPLKAASSECKAGAVIKDKTVDCGGITLGLSCTGDSDKQPPVITLENATIKNLRISEKGGSDGIHCKSGNCRIENVIWEDVCEDAATNLGKTMTIVGGVAHNTTNGPGGKPDKVLQQNAKNSHTIVQGNFTLTGQHGKLWRSCGDCTNNGGPRNLTIISATVNGTIDSIAGVNRNFGDVAEIRDLRIKNYKAGNPKICEEFKGIEKGKGKTEKYGEFWDSKNCKVSRSNVKAL
- unfolding free energy (Pectobacterium carotovorum, pH 7.4, 25 °C, GdnHCl, DSC, CGH-10, reversible: no): 8.7 kcal/mol
- Tm [2]: 81.1 °C
- unfolding enthalpy (calorimetric) [2]: 102 kcal/mol

B3: Granulocyte-macrophage colony-stimulating factor wild type, P01587 (protein)
chain: MWLQNLLFLGIVVYSLSAPTRSPITVTRPWKHVEAIKEALNLLDDMPVTLNEEVEVVSNEFSFKKLTCVQTRLKIFEQGLRGNFTKLKGALNMTASYYQTYCPPTPETDCETQVTTYADFIDSLKTFLTDIPFECKKPGQK
- unfolding free energy (Mus musculus, pH 9, 4 °C, Urea, CD, Tris-glycine 50 mM, reversible: yes): 5.78 kcal/mol

B4: wild type, Q88HV5 (protein)
chain: MPFQQGLLATPVPAHARHLFFTLQSPEALPAALDALLPQVDGKQLLLGVGAPLAKALGREIPGLRPFPLLDAAVENPSTQHALWLWLRGDERGDLLLRTQALEQALAPALSLADSVDGFLHRGGHDLTGYEDGTENPTDEEAVQAAIAADGSSFAAFQLWKHDLQYFKSLPQADQDNIIGRRLSDNEELDDAPASAHVKRTAQESFEPEAFMVRRSVSWADQRGAGLAFVALGKSFEAFEVQLRRMSGLEDGIIDGLYRFSRPLTGGYYWCPPMSETGVDLSPLLRA
- Tm (Pseudomonas putida (strain ATCC 47054 / DSM 6125 / CFBP 8728 / NCIMB 11950 / KT2440), pH 7.6, Fluorescence spectroscopy): 65 °C

B5: Pyridoxal kinase wild type, P82197 (protein)
chain: MEEECRVLSIQSHVVRGYVGNRAATFPLQVLGFEVDAVNSVQFSNHTGYSHWKGQVLNSDELQELYDGLKLNHVNQYDYVLTGYTRDKSFLAMVVDIVQELKQQNPRLVYVCDPVMGDQRNGEGAMYVPDDLLPVYREKVVPVADIITPNQFEAELLTGRKIHSQEEALEVMDMLHSMGPDTVVITSSNLLSPRGSDYLMALGSQRTRAPDGSVVTQRIRMEMHKVDAVFVGTGDLFAAMLLAWTHKHPNNLKVACEKTVSAMHHVLQRTIKCAKAKSGEGVKPSPAQLELRMVQSKKDIESPEIVVQATVL
- denaturant m value [3]: 2.41 kcal/mol/M
- unfolding free energy [3]: 1.55 kcal/mol
- denaturant m value [4]: 2.9 kcal/mol/M
- unfolding free energy [4]: 1.5 kcal/mol

B6: Amicyanin wild type, P22364 (protein)
chain: MISATKIRSCLAACVLAAFGATGALADKATIPSESPFAAAEVADGAIVVDIAKMKYETPELHVKVGDTVTWINREAMPHNVHFVAGVLGEAALKGPMMKKEQAYSLTFTEAGTYDYHCTPHPFMRGKVVVE
- Tm (Paracoccus denitrificans, pH 7.5, Thermal, CD, Potassium Phosphate Buffer 100 mM): 60 °C and 55 °C
- Tm (Paracoccus denitrificans, pH 7.5, Thermal, absorbance, Potassium Phosphate Buffer 10 mM): 66.4 °C

B7: Pseudoazurin wild type, P80401 (protein)
chain: MFHHSLAAAAAALLALAAPGFAATHEVHMLNKGESGAMVFEPAFVRAEPGDVINFVPTDKSHNVEAIKEILPEGVESFKSKINESYTLTVTEPGLYGVKCTPHFGMGMVGLVQVGDAPENLDAAKTAKMPKKARERMDAELAQVN
- denaturant m value [5]: 1.87 kcal/mol/M
- unfolding free energy [5]: 6.88 kcal/mol

B8: Cyanovirin-N wild type, P81180 (protein)
chain: LGKFSQTCYNSAIQGSVLTSTCERTNGGYNTSSIDLNSVIENVDGSLKWQPSNFIETCRNTQLAGSSELAAECKTRAQQFVSTKINLDDHIANIDGTLKYE
- Tm (Nostoc ellipsosporum, pH 6, Thermal, CD, Sodium phosphate 10 mM): 48.5 °C

B9: Adapter molecule crk wild type, Q64010 (protein)
chain: MAGNFDSEERSSWYWGRLSRQEAVALLQGQRHGVFLVRDSSTSPGDYVLSVSENSRVSHYIINSSGPRPPVPPSPAQPPPGVSPSRLRIGDQEFDSLPALLEFYKIHYLDTTTLIEPVARSRQGSGVILRQEEAEYVRALFDFNGNDEEDLPFKKGDILRIRDKPEEQWWNAEDSEGKRGMIPVPYVEKYRPASASVSALIGGNQEGSHPQPLGGPEPGPYAQPSVNTPLPNLQNGPIYARVIQKRVPNAYDKTALALEVGELVKVTKINVSGQWEGECNGKRGHFPFTHVRLLDQQNPDEDFS
- denaturant m value [6]: 0.66 kcal/mol/M
- unfolding free energy [6]: 3.33 kcal/mol

Source: FireProtDB
